Results from patent US20210113649A1 (UNIVERSITY OF FLORIDA RESEARCH FOUNDATION, published 2021).
Values belong to the binder of their own block, whether it stands above or below them.

Experiments:
[1] = biological target: T1, GFP-DAXX S495A (human, UniProt Q9UER7 1-740); assay: anti-FLAG IP of 293T cells cotransfected with GFP-DAXX constructs and FLAG-SREBP2 (FIG. 6A)
T1 construct: also called S495A mutant; not shown: GFP from the pEGFP-C2 vector
Text: (§1) FIGS. 6A to 6H show mutation of DAXX phosphorylation sites disrupts DAXX-SREBP2 interaction, impairs lipogenesis and tumor growth. […] The GFP-wt DAXX was transfected alone in the absence of FLAG-SREBP2 as a control (lane 7). The lysates of transfected cells were subjected to IP with an anti-FLAG antibody, Both DAXX and FLAG-SREBP2 were detected in immunoprecipitates and input lysates. […] The precipitated DNAs were subjected to qPCR with primers specific to promoter regions of the indicated genes. qPCRs for the 3′ UTR of the FASN and ACACA genes serve as negative control. […] ATRX qRT-PCR serves as a control for genes not regulated by SREBPs. […] Cells were serum-starved for 24 h. DMSO or a mTOR inhibitor (0.1 μM final concentration) was added for 5 h before cell lysis. […] RNAs were isolated from cells cultured in serum-free DMEM for 24 h as in FIG. 6D.

[2] = biological target: T2, GFP-DAXX S690A (human, UniProt Q9UER7 1-740); assay: as above
T2 construct: also called S690A mutant; not shown: GFP from the pEGFP-C2 vector
T2 sequence (Q9UER7 whole entry S690A): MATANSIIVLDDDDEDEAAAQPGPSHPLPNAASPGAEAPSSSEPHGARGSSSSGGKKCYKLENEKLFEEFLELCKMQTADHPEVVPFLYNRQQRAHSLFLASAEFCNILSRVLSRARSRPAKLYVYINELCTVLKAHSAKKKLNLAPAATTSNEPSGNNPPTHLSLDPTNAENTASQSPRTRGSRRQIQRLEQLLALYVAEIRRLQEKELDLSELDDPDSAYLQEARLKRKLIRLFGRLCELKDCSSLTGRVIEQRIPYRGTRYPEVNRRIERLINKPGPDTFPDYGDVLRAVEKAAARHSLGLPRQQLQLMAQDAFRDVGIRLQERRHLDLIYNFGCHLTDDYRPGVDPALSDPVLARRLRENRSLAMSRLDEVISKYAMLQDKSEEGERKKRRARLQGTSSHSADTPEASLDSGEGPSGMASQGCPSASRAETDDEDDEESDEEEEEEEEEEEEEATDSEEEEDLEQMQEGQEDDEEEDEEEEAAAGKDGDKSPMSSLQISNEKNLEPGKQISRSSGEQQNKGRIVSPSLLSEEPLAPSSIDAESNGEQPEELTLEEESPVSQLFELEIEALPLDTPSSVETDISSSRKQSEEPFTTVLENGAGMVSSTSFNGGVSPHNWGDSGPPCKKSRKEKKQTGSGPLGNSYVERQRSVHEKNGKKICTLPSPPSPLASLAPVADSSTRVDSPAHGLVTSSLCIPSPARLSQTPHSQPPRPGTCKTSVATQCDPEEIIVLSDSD
Text: as §1

[3] = biological target: T3, GFP-DAXX S668A/S671A (human, UniProt Q9UER7 1-740); assay: as above
T3 construct: also called S668A/S671A mutant; not shown: GFP from the pEGFP-C2 vector
T3 sequence (Q9UER7 whole entry S668A/S671A): as the sequence (Q9UER7 whole entry S690A) above, with S668A, S671A, A690S counted along it
Text: as §1

[4] = biological target: T4, GFP-DAXX S671A (human, UniProt Q9UER7 1-740); assay: as above
T4 construct: also called S671A mutant; not shown: GFP from the pEGFP-C2 vector
T4 sequence (Q9UER7 whole entry S671A): as the sequence (Q9UER7 whole entry S690A) above, with S671A, A690S counted along it
Text: as §1

[5] = biological target: T5, DAXX (death domain-associated protein), endogenous (human, UniProt Q9UER7 1-740); assay: IP of MDA-MB-231 or PC3 cell extracts with an anti-DAXX mAb, immunoblot for SREBP2 (M, mature)
T5 construct: Endogenous protein pulled down with an anti-DAXX mAb or co-precipitated with FLAG-SREBP2; also called endogenous DAXX
T5 sequence (Q9UER7 whole entry, the tested form may be a part): as the sequence (Q9UER7 whole entry S690A) above, with A690S counted along it
Text: FIGS. 2A to 2E show DAXX binds to SREBP2. […] MDA-MB-231 or PC3 cell extracts were subjected to IP with a control (IgG) or an anti-DAXX monoclonal antibody. The immunoprecipitated SREBP2 was detected. P, precursor; M, mature SREBP2. FIGS. 2B, 2C, and 2D show there are two independent binding sites in DAXX for mature SREBP2. […] The cell lysates were subjected to FLAG IP. […] HC: IgG heavy chain. *: non-specific band. FIG. 2E is a schematic drawing of DAXX-SREBP2 interactions. The two independent SREBP2-binding sites are depicted. Also shown is the sequence of aa 327-335 within the DAXX HBD critical for the DAXX-SREBP2 interactions. SIM: SUMO-interacting motif; DHB: DAXX helical bundle; HBD: histone-binding domain; PEST: proline, glutamic acid, serine, and threonine-rich sequence. Numbers refer to aa residue positions in the DAXX protein. Note that the irrelevant lanes in the same blots (between the input and IP samples in the PC3 blot in panel A, between lanes 4 and 5, and lanes 12 and 13 in panel B, and between lanes 1 and 2 in panel D) are left out.
Immunoprecipitation (IP) of total cell extracts with anti-DAXX antibody evidenced co-precipitation of two SREBP2 proteins (FIG. 2A) that correspond to the precursor (P) and the mature (M) forms of SREBP2. […]

T1 sequence (Q9UER7 whole entry S495A): as the sequence (Q9UER7 whole entry S690A) above, with S495A, A690S counted along it

binding result [1]: no binding
binding result [2]: no binding
binding result [3]: no binding
binding result [4]: no binding
B1: FLAG-SREBP2 (mature) (other, UniProt Q12772 1-481, looked up)
chain: MDDSGELGGLETMETLTELGDELTLGDIDEMLQFVSNQVGEFPDLFSEQLCSSFPGSGGSGSSSGSSGSSSSSSNGRGSSSGAVDPSVQRSFTQVTLPSFSPSAASPQAPTLQVKVSPTSVPTTPRATPILQPRPQPQPQPQTQLQQQTVMITPTFSTTPQTRIIQQPLIYQNAATSFQVLQPQVQSLVTSSQVQPVTIQQQVQTVQAQRVLTQTANGTLQTLAPATVQTVAAPQVQQVPVLVQPQIIKTDSLVLTTLKTDGSPVMAAVQNPALTALTTPIQTAALQVPTLVGSSGTILTTMPVMMGQEKVPIKQVPGGVKQLEPPKEGERRTTHNIIEKRYRSSINDKIIELKDLVMGTDAKMHKSGVLRKAIDYIKYLQQVNHKLRQENMVLKLANQKNKLLKGIDLGSLVDNEVDLKIEDFNQNVLLMSPPASDSGSQAGFSPYSIDSEPGSPLLDDAKVKDEPDSPPVALGMVDRSR
notes: domain: mature form; also called mature SREBP2 (Plasmid #26807); not shown: FLAG tag

B2: SREBP2 mature form, endogenous (other, human, UniProt Q12772 1-484, looked up)
chain: MDDSGELGGLETMETLTELGDELTLGDIDEMLQFVSNQVGEFPDLFSEQLCSSFPGSGGSGSSSGSSGSSSSSSNGRGSSSGAVDPSVQRSFTQVTLPSFSPSAASPQAPTLQVKVSPTSVPTTPRATPILQPRPQPQPQPQTQLQQQTVMITPTFSTTPQTRIIQQPLIYQNAATSFQVLQPQVQSLVTSSQVQPVTIQQQVQTVQAQRVLTQTANGTLQTLAPATVQTVAAPQVQQVPVLVQPQIIKTDSLVLTTLKTDGSPVMAAVQNPALTALTTPIQTAALQVPTLVGSSGTILTTMPVMMGQEKVPIKQVPGGVKQLEPPKEGERRTTHNIIEKRYRSSINDKIIELKDLVMGTDAKMHKSGVLRKAIDYIKYLQQVNHKLRQENMVLKLANQKNKLLKGIDLGSLVDNEVDLKIEDFNQNVLLMSPPASDSGSQAGFSPYSIDSEPGSPLLDDAKVKDEPDSPPVALGMVDRSRILL
notes: domain: mature form (N-terminal domain released by cleavage); also called mature SREBP2
binding result [5]: binds
